Source: patent US20250367292A1, “HLA SUPERAGONISTS AND USES THEREOF” (UNIVERSITY HEALTH NETWORK, priority 2021, published 2025)

Molecular target: T1, HLA-A*24:02-restricted peptides (Homo sapiens, UniProt P04439, D101N/D140Y/D185E/E176V/E190D/F33S/G103R/G107R/I119L/I121M/I306V/K335N/L105A/L180Q/L300P/N151K/N90K/Q86E/Q94H/R106L/R138H/R89G/T104I/T345S/V100E/W191G/Y123F)
T1 construct: T2 cells transduced with the full-length HLA-A*24:02 genes tagged with ΔNGFR; Furin-SGSG-F2A-linked truncated NGFR (ΔNGFR) co-expression marker (C); expressed in transfected cells; host or cells: T2 cells, retrovirally transduced (pMX)
Assay: Peptide-HLA binding assay (biotinylated peptide, SA-PE, flow cytometry)
Assay type: cell-based
Settings: irrelevant control peptides
Description: T2-A24 (Wild-type) cells, or T2-A24 cells with a single amino acid substitution at position 81, 82, or 83 were pulsed with 50 μg/ml of biotinylated peptide overnight at 37° C. After intensive washing, the cells were stained by PE-conjugated streptavidin (SA-PE), washed and fluorescence intensity was measured by flow cytometry analysis.

peptide presentation by T2 cells towards non-HLA-A*24:02 restricted peptides: no increase
Substance: HLA-A*24:02 (A81L): HLA-A*24:02 with an Ala to Leu substitution at position 81 (A81L), corresponding to SEQ ID NO: 1
